Reference: the supplement of paper PMC10126150
± gives the standard deviation of the averaged measurements.

Tested on: ATP
Test: switch fluorescence ratio, 500 uM ATP over buffer (Cy3 cluster intensity, sum of 5 cycles each) (fold (ratio)); higher = stronger signal-on switching upon ATP binding; sequences stand for … in TCGTCGGCAGCGTCAGATGTGTATAAGAGACAGTTTTTTTTTTTTTTTTTTTTTTTTT…TC
Settings: aptamer strand: ATP DNA aptamer (quencher-CACCTGGGGGAGTATTGCGGAGGAAGG + anchor), 100 nM annealed; ATP concentration: 500 uM
Procedure, shortened: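 Exposure to 500 uM ATP lasted 15 min at 22 °C before imaging, and a selection-buffer image was taken beforehand, for Cy3-labelled switching-strand clusters on a modified Illumina MiSeq flow-cell annealed to 100 nM quencher-labelled ATP aptamer. Five buffer/ATP cycles were run with NaOH stripping and re-annealing between them. The fluorescence ratio per cluster is summed target-cycle over summed buffer-cycle Cy3 intensity, averaged per switch-domain sequence. Clusters outside 100-1000 RFU were excluded.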

Sequence	switch fluorescence ratio
TTTTTTGTCC	1.01 ± 0.018
ATAAGGTTCC	1.091 ± 0.005
GGTGTTCGGA	1 ± 0.031
GGGGGAGCGG	0.992 ± 0.033
TTATGTGGAG	0.974 ± 0.015
TTGGGGTACG	1.01 ± 0.021
TTATATTCTG	0.9893 ± 0.0041
TCGATTAGGG	1.04 ± 0.017
TGAGATTCAG	0.985 ± 0.02
TGGCGGTGAC	1.02 ± 0.01
GACGGAGGCT	1.04 ± 0.042
TTGAGCCTCC	1.2 ± 0.15
GGGGGTTCGG	0.992 ± 0.021
ATGCGCGCCG	0.982 ± 0.037
TGGACGAGGG	0.992 ± 0.041
GAGATTCGCT	0.988 ± 0.014
CTGAATGGGT	0.998 ± 0.016
AGTTTGGCTT	0.99 ± 0.011
CTAAATGAGC	0.979 ± 0.02
ATAGGCGTTT	0.975 ± 0.018
TTTATAAGGG	0.995 ± 0.013
CATAACTTGG	1.011 ± 0.002
CATTGGTCGC	0.997 ± 0.035

Sequence	switch fluorescence ratio
GGTTCTCAGT	0.988 ± 0.0097
AGTCGATGTG	0.966 ± 0.025
TTTAAGCGCT	0.979 ± 0.029
GGGGTAGATC	1.05 ± 0.013
TCAGTTTTGT	1.012 ± 0.0094
TTTTATGGT	1.013 ± 0.0067
GCACCATTCC	1.72 ± 0.07
TCGTTGTGTA	0.995 ± 0.03
GCTGTGAGGT	0.979 ± 0.0018
GATTTTGTGT	0.98 ± 0.043
TTTTTTACGT	1.043 ± 0.0092
ACAGGCGATC	1.09 ± 0.018
CATACGTGCG	1 ± 0.042
AATAAAGGGA	0.9841 ± 0.0045
CACATAAAAG	0.987 ± 0.027
GGTGGGAAGT	0.987 ± 0.021
TCTGCCTAGG	1.13 ± 0.075
TTAAATAATC	1 ± 0.035
TTCTGTCTGG	0.994 ± 0.021
AAAGGTTTTC	0.9804 ± 0.0084
ATTAAGGGGG	0.9982 ± 0.0069
CGGTAGAGTA	0.98 ± 0.062
CTAGATGTGG	0.983 ± 0.059

Sequence	switch fluorescence ratio
TACAGGTGCA	1.81 ± 0.022
GATTTTACGT	1.021 ± 0.0067
GGGGAACCAT	1.01 ± 0.039
ATCGGTACTG	0.965 ± 0.027
TTTATTTTAA	0.995 ± 0.028
AAGTTTGAAT	0.978 ± 0.013
AGGTCTGTGG	0.982 ± 0.04
GGTTAACTTG	0.975 ± 0.034
AGTGCGAAGG	0.97211 ± 0.00025
ACGTTGTGGA	1.027 ± 0.0075
ACTTATGCAT	1.055 ± 0.0046
GGGTGATAGA	1.01 ± 0.039
TGCGGGGGCA	1.02 ± 0.025
CATTATTGGC	1.06 ± 0.025
ATCGACTTGG	1.016 ± 0.0053
AAGTTTTTGC	1.01 ± 0.019
TGACGGATGG	1.03 ± 0.051
ATAGGGTCGT	0.998 ± 0.011
AGGGGAATAA	0.997 ± 0.015
AATGGTACGA	1 ± 0.035
TAAACGGGGG	1.04 ± 0.045
CGGTGTTGGA	0.978 ± 0.039
ATTAGTAGGG	0.9807 ± 0.0041

Sequence	switch fluorescence ratio
AGTGTCGCTG	1.008 ± 0.0012
GACTAATTTT	0.9844 ± 0.0081
GACCAAGTCA	0.997 ± 0.026
TTTTTGTTCG	0.998 ± 0.015
GGTTGGAAAA	1.0226 ± 0.00079
ATTTACGCCT	1.12 ± 0.05
TTGGTAGTTG	0.954 ± 0.011
CGTGGTCGTG	0.9672 ± 0.00049
AAGATACGCT	1.06 ± 0.065
ATGGCTGGCT	1.04 ± 0.041
TCACCGTTCT	1.03 ± 0.032
TGCACGGTTG	1.002 ± 0.0026
TGGGAAGAAT	0.99323 ± 0.00037
CGAATTTTAT	0.976 ± 0.039
GTGAGGATTG	0.98581 ± 8e-05
GGCGCACTGT	1.02 ± 0.021
TGTTATCAGG	1.01 ± 0.038
TTATGTGGTA	1 ± 0.02
TGCTTGAA	0.962 ± 0.021
TGAGACGAAA	1.07 ± 0.052
ACTAAGAGTT	1.03 ± 0.056
GTTTGAGGGA	0.982 ± 0.035
TGGTGGAAAA	0.973 ± 0.02

Sequence	switch fluorescence ratio
GGTATTCGGT	0.971 ± 0.04
GGGATAAGCT	1.02 ± 0.022
AGGCGGGTGC	1.04 ± 0.095
ATATGTAGAG	1.05 ± 0.046
TGGTGGCGG	0.952 ± 0.037
TTTTAGGCGT	0.99 ± 0.013
GGGCCACGTA	0.971 ± 0.082
GGTTAGGCAT	1 ± 0.0058
AATACGGGCG	1.008 ± 0.0056
ATGTTTGAGG	0.989 ± 0.029
CCTAGCGGTT	1.1459 ± 0.00038
GCTGGTAAGC	0.9696 ± 0.0029
AAATAAATAA	0.944 ± 0.011
TTATATGGTG	0.98 ± 0.041
AGCGCGTTGT	1.02 ± 0.044
GCAGTAGGGG	0.989 ± 0.015
AACTGAGGGA	1.022 ± 0.0069
AGTGCAGGTT	0.97386 ± 7.1e-05
GTTTTTTCGA	1.024 ± 0.0051
TGGTGGGGG	1.01 ± 0.051
CCAGTTAGCC	1.04 ± 0.13
CGGTTATTGG	0.958 ± 0.041
ATTTTCTGTA	1.0017 ± 0.00088

Sequence	switch fluorescence ratio
TCTTTTCCCT	1.02 ± 0.086
ACATCTCAGT	1.06 ± 0.059
TGCTTTTTAG	0.988 ± 0.029
CTCCCCAGGG	2.689 ± 0.013
AGCGTGTTTA	1.04 ± 0.036
GGTATATAGG	1.01 ± 0.027
AGTGGGGTTT	0.976 ± 0.013
GGTAAACAAA	1.026 ± 0.0079
TAAATCACGC	1.23 ± 0.24
GCTTATTCGG	0.959 ± 0.03
TGTTCTAGTA	1.27 ± 0.45
AAGAATATAT	0.991 ± 0.018
GGGATCAGCG	0.988 ± 0.041
TCTTGCGTCG	0.976 ± 0.023
GCTTCAGCAA	1.03 ± 0.055
GATAGGAGCC	0.9977 ± 0.002
GTAATGGTTT	1.07 ± 0.17
TTTACGGATT	1.02 ± 0.048
AAGTTAGTGG	1.01 ± 0.04
CTTTGGAATA	1.07 ± 0.041
AAGTCTGTCT	0.998 ± 0.054
ACACGGGGGT	1.01 ± 0.018
GGCGGAGAGA	1.03 ± 0.07

Sequence	switch fluorescence ratio
GCTGTTTGGG	0.997 ± 0.014
TATGTTTATC	0.975 ± 0.055
GAAAAAAAAT	1 ± 0.067
TTGTAATTTT	0.991 ± 0.017
CGGTTTTATC	1.01 ± 0.034
TAAAAAGAAG	1 ± 0.045
CCCGGGAAAA	0.943 ± 0.03
AGTAGGGCGT	0.9964 ± 0.0088
GTGTTAACGG	0.982 ± 0.017
CAGCTAAAGT	1.009 ± 0.0017
ACGTGTGTGG	0.989 ± 0.017
TTTTTTCCAC	1.01 ± 0.028
ATGTAGTCGG	0.978 ± 0.012
ACCTGAATTA	1 ± 0.035
TTAAGCGGGA	1.01 ± 0.015
ATGATGAAGT	1.02 ± 0.017
GAACTAACCA	1.09 ± 0.02
TAGGGTAGTG	1.01 ± 0.021
CAATTTTTAG	1.01 ± 0.023
